Target: T1, EphA1 (Homo sapiens, UniProt P21709)
T1 construct: expressed in transfected cells; host or cells: DU145 cells, retroviral infection
T1 sequence (P21709 26-976): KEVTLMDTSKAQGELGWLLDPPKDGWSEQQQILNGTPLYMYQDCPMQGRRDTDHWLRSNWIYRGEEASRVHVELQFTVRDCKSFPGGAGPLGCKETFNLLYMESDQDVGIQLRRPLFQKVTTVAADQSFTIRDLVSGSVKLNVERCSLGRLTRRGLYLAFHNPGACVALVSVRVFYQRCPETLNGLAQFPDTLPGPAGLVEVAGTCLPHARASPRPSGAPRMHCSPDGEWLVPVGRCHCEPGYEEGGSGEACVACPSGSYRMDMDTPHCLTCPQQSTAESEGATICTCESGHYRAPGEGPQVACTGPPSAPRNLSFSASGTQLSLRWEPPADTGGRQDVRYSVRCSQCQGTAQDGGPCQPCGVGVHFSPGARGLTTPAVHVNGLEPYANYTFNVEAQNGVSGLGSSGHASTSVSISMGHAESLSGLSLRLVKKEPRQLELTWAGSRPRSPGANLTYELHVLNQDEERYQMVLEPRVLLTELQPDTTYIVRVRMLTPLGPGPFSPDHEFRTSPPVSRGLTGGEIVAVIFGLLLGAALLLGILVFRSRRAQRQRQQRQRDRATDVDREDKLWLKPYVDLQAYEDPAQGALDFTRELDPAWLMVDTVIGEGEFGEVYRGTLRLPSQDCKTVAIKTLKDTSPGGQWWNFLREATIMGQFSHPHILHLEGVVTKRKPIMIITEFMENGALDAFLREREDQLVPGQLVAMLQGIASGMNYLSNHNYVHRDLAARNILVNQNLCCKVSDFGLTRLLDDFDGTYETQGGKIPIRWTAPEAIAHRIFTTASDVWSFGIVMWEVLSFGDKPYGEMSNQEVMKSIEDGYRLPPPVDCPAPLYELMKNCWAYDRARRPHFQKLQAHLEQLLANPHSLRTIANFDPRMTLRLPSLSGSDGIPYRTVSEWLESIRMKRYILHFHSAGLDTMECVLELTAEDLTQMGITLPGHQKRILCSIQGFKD
Test: Proliferation of DU145 cells expressing EphA1
Type: cell-based
Conditions: 10% serum 7 days or 0.5% serum 18 days
Method: (§1) FIGS. 49(A-B) illustrate expression of EphA1 in DU145 cells infected with vector control (control) and EphA1 expression retrovirus. FIG. 49B illustrates that about 2,000 cells were plated on 12-well plates in the regular culture medium (10% serum) and low serum medium (0.5%). Cell were cultured for 7 days (10% serum) or 18 days (0.5%). FIG. 49B illustrates that proliferation of prostatic epithelial cells expressing EphA1 and activated with Ephrin-A1 is inhibited.
as §1, with “DU145 human prostatic epithelial cells were infected with retrovirus expressing EphA1. FIG. 49A illustrates” for “FIGS. 49(A-B) illustrate”

- proliferation of cells expressing EphA1: is inhibited
B1: ephrin-A1-Fc: ephrin-A1 dimerized by fusion to the heavy chain of human IgG1 (protein)
chain: DRHTVFWNSSNPKFRNEDYTIHVQLNDYVDIICPHYEDHSVADAAMEQYILYLVEHEEYQLCQPQSKDQVRWQCNRPSAKHGPEKLSEKFQRFTPFTLGKEFKEGHSYYYISKPIHQHEDRCLRLKVTVSGKITHSPQAHDNPQEKRLAADDPEVRVLHSIGHS
modifications: left off: a dimerising Fc or GST
notes: ephrin-A1 dimerized by fusion to the heavy chain of human IgG1

Reference: US10434074B2, “Peptide and small molecule agonists of EPHA and uses thereof” (CASE WESTERN RESERVE UNIVERSITY, priority 2004, dated 2019)
